From US20230270892A1, “CHELATOR COMPOSITIONS FOR RADIOMETALS AND METHODS OF USING SAME” (TRIUMF INC., priority 2020, published 2023)

Key:
[1] = in vivo; parameters: species or system mice; settings: mouse, iv, total radioactivity
Procedure: At the day of biodistribution mice were injected in the tail vein with ~20 kBq of ^225Accrown-αMSH (range: 10.8-31.6 kBq). […] Blood was collected by cardiac puncture and a full biodistribution performed. Organs were cleaned from blood, weighed and the activity determined using a calibrated gamma counter (Packard Cobra II Auto-gamma counter, Perkin Elmer, Waltham, MA, USA) using three energy windows: 60-120 keV (window A), 180-260 keV (window B), and 400-480 keV (window C). Counting was performed after 6 hours post-sacrifice to ensure equilibrium of the ^225Ac decay chain. Counts were decay corrected from the time of sacrifice and total organ weights were used for the calculation of injected dose per gram of tissue (% ID/g). No differences were noted between the data calculated by three different windows; therefore, the biodistributions are reported using the data acquired using window A. The biological distribution of ^225Ac-crown-TATE was examined by the inventors following similar protocols as described above for Example 5.1.

[2] = Stability of ^225Ac-labelled crown complex left at ambient temperature; type: physicochemical; settings: up to 5 days and up to 8 days in a second experiment
Procedure: The reaction was largely complete after 10 min. […] To obtain the data shown in FIG. 14, labeling with crown was conducted at room temperature for a period of 15 minutes, while labelling with DOTA was conducted at 90° C. for a period of 15 minutes.

`C[C@@H](O)[C@H](NC(=O)[C@@H]1CSSC[C@H](NC(=O)[C@@H](Cc2ccccc2)NC(=O)CN2CCOCCN(CC(=O)O)CCN(CC(=O)O)CCOCCN(CC(=O)O)CC2)C(=O)N[C@@H](Cc2ccc(O)cc2)C(=O)N[C@H](Cc2c[nH]c3ccccc23)C(=O)N[C@@H](CCCCN)C(=O)N[C@@H]([C@@H](C)O)C(=O)N1)C(=O)O` [^225Ac-crown-TATE, metal not drawn] showed a tissue uptake at 1 h ([1]; Biodistribution: Andrenals) of 1.34 %ID/g, a tissue uptake at 4 h ([1]; Biodistribution: Andrenals) of 1.37 %ID/g and a tissue uptake at 24 h ([1]; Biodistribution: Andrenals) of 1.77 %ID/g. It also gave a tissue uptake at 72 h ([1]; Biodistribution: Andrenals) of 1.37 %ID/g, a tissue uptake at 1 h ([1]; Biodistribution: Bladder) of 7.09 %ID/g and a tissue uptake at 4 h ([1]; Biodistribution: Bladder) of 1.04 %ID/g. The tissue uptake at 24 h ([1]; Biodistribution: Bladder) was 0.33 %ID/g, the tissue uptake at 72 h ([1]; Biodistribution: Bladder) was 0.37 %ID/g and the tissue uptake at 1 h ([1]; Biodistribution: Blood) was 0.54 %ID/g. It also gave a tissue uptake at 4 h ([1]; Biodistribution: Blood) of 0.09 %ID/g, a tissue uptake at 24 h ([1]; Biodistribution: Blood) of 0.03 %ID/g and a tissue uptake at 72 h ([1]; Biodistribution: Blood) of 0.02 %ID/g. The tissue uptake at 1 h ([1]; Biodistribution: Bone) was 0.35 %ID/g, the tissue uptake at 4 h ([1]; Biodistribution: Bone) was 0.78 %ID/g and the tissue uptake at 24 h ([1]; Biodistribution: Bone) was 0.38 %ID/g. It also gave a tissue uptake at 72 h ([1]; Biodistribution: Bone) of 0.78 %ID/g, a tissue uptake at 1 h ([1]; Biodistribution: Brain) of 0.03 %ID/g and a tissue uptake at 4 h ([1]; Biodistribution: Brain) of 0.01 %ID/g. The tissue uptake at 24 h ([1]; Biodistribution: Brain) was 0.01 %ID/g, the tissue uptake at 72 h ([1]; Biodistribution: Brain) was 0.01 %ID/g and the excreta dose per gram or mL at 1 h ([1]; Biodistribution: Feces) was 0.22 %ID/g. For the same molecule, the excreta dose per gram or mL at 4 h ([1]; Biodistribution: Feces) was 0.27 %ID/g, the excreta dose per gram or mL at 24 h ([1]; Biodistribution: Feces) was 0.53 %ID/g and the excreta dose per gram or mL at 72 h ([1]; Biodistribution: Feces) was 0.26 %ID/g. For the same molecule, the tissue uptake at 1 h ([1]; Biodistribution: Gallbladder) was 0.68 %ID/g, the tissue uptake at 4 h ([1]; Biodistribution: Gallbladder) was 0.52 %ID/g and the tissue uptake at 24 h ([1]; Biodistribution: Gallbladder) was 0.99 %ID/g. For the same molecule, the tissue uptake at 72 h ([1]; Biodistribution: Gallbladder) was 1.25 %ID/g, the tissue uptake at 1 h ([1]; Biodistribution: Heart) was 0.32 %ID/g and the tissue uptake at 4 h ([1]; Biodistribution: Heart) was 0.15 %ID/g. The tissue uptake at 24 h ([1]; Biodistribution: Heart) was 0.18 %ID/g, the tissue uptake at 72 h ([1]; Biodistribution: Heart) was 0.19 %ID/g and the tissue uptake at 1 h ([1]; Biodistribution: Kidneys) was 20 %ID/g. For the same molecule, the tissue uptake at 4 h ([1]; Biodistribution: Kidneys) was 20.7 %ID/g, the tissue uptake at 24 h ([1]; Biodistribution: Kidneys) was 11.5 %ID/g and the tissue uptake at 72 h ([1]; Biodistribution: Kidneys) was 7.09 %ID/g. It also gave a tissue uptake at 1 h ([1]; Biodistribution: Lg Intestine) of 1.55 %ID/g, a tissue uptake at 4 h ([1]; Biodistribution: Lg Intestine) of 1.58 %ID/g and a tissue uptake at 24 h ([1]; Biodistribution: Lg Intestine) of 1.31 %ID/g. The tissue uptake at 72 h ([1]; Biodistribution: Lg Intestine) was 1.02 %ID/g, the tissue uptake at 1 h ([1]; Biodistribution: Liver) was 1.38 %ID/g and the tissue uptake at 4 h ([1]; Biodistribution: Liver) was 1 %ID/g. It also gave a tissue uptake at 24 h ([1]; Biodistribution: Liver) of 1.77 %ID/g, a tissue uptake at 72 h ([1]; Biodistribution: Liver) of 2.43 %ID/g and a tissue uptake at 1 h ([1]; Biodistribution: Lungs) of 3.4 %ID/g. The tissue uptake at 4 h ([1]; Biodistribution: Lungs) was 3.37 %ID/g, the tissue uptake at 24 h ([1]; Biodistribution: Lungs) was 2.31 %ID/g and the tissue uptake at 72 h ([1]; Biodistribution: Lungs) was 2 %ID/g. It also gave a tissue uptake at 1 h ([1]; Biodistribution: Muscle) of 0.1 %ID/g, a tissue uptake at 4 h ([1]; Biodistribution: Muscle) of 0.02 %ID/g and a tissue uptake at 24 h ([1]; Biodistribution: Muscle) of 0.02 %ID/g. The tissue uptake at 72 h ([1]; Biodistribution: Muscle) was 0.04 %ID/g, the tissue uptake at 1 h ([1]; Biodistribution: Pancreas) was 4.39 %ID/g and the tissue uptake at 4 h ([1]; Biodistribution: Pancreas) was 3.24 %ID/g. For the same molecule, the tissue uptake at 24 h ([1]; Biodistribution: Pancreas) was 1.22 %ID/g, the tissue uptake at 72 h ([1]; Biodistribution: Pancreas) was 1.07 %ID/g and the tissue uptake at 1 h ([1]; Biodistribution: Sm Intestine) was 0.88 %ID/g. For the same molecule, the tissue uptake at 4 h ([1]; Biodistribution: Sm Intestine) was 0.74 %ID/g, the tissue uptake at 24 h ([1]; Biodistribution: Sm Intestine) was 0.51 %ID/g and the tissue uptake at 72 h ([1]; Biodistribution: Sm Intestine) was 0.49 %ID/g. It also gave a tissue uptake at 1 h ([1]; Biodistribution: Spleen) of 0.48 %ID/g, a tissue uptake at 4 h ([1]; Biodistribution: Spleen) of 0.36 %ID/g and a tissue uptake at 24 h ([1]; Biodistribution: Spleen) of 0.23 %ID/g. For the same molecule, the tissue uptake at 72 h ([1]; Biodistribution: Spleen) was 0.35 %ID/g, the tissue uptake at 1 h ([1]; Biodistribution: Stomach) was 5.04 %ID/g and the tissue uptake at 4 h ([1]; Biodistribution: Stomach) was 3.7 %ID/g. For the same molecule, the tissue uptake at 24 h ([1]; Biodistribution: Stomach) was 2.75 %ID/g, the tissue uptake at 72 h ([1]; Biodistribution: Stomach) was 2.25 %ID/g and the tissue uptake at 1 h ([1]; Biodistribution: Tail) was 1.56 %ID/g. It also gave a tissue uptake at 4 h ([1]; Biodistribution: Tail) of 0.42 %ID/g, a tissue uptake at 24 h ([1]; Biodistribution: Tail) of 0.35 %ID/g and a tissue uptake at 72 h ([1]; Biodistribution: Tail) of 0.34 %ID/g. It also gave a tissue uptake at 1 h ([1]; Biodistribution: Tumour) of 5.86 %ID/g, a tissue uptake at 4 h ([1]; Biodistribution: Tumour) of 5.15 %ID/g and a tissue uptake at 24 h ([1]; Biodistribution: Tumour) of 5.7 %ID/g. For the same molecule, the tissue uptake at 72 h ([1]; Biodistribution: Tumour) was 4.97 %ID/g, the excreta dose per gram or mL at 1 h ([1]; Biodistribution: Urine) was 108 %ID/g and the excreta dose per gram or mL at 4 h ([1]; Biodistribution: Urine) was 13.2 %ID/g. It also gave an excreta dose per gram or mL at 24 h ([1]; Biodistribution: Urine) of 0.87 %ID/g and an excreta dose per gram or mL at 72 h ([1]; Biodistribution: Urine) of 0.2 %ID/g.
In the case of `O=C(O)CN1CCOCCN(CC(=O)O)CCN(CC(=O)O)CCOCCN(CC(=O)O)CC1` [crown, 2,2’,2”,2’”-(1,10-dioxa-4,7,13,16-tetraazacyclooctadecane-4,7,13,16-tetrayl)tetraacetic acid], the “free ^225Ac observed” value [2] is reported as under 2%.
